The values below come from patent US7041463B2, “Orthologues of human receptors and methods of use” (Pharmacopeia Drug Discovery, Inc., priority 2000, dated 2006).

Assay [1] concerns the target B1 receptors (species homologues). Kind of assay: [3H]-des-Arg10-kallidin binding across all cloned B1 orthologues. Conditions: 0.6 nM or 1.5 nM (rat) [3H]-dAKd. The procedure:
(§1) Membrane preparations for use in accordance with the methods of the present invention were generated as follows. 293E cells expressing B1 receptors were harvested and pelleted. Cells were washed once with PBS and once with a membrane buffer (for example, 10 mM HEPES pH 7.5, 1 μM phosphoramidon, 3 μM amastatin, 1 μM captopril, 2 μM dithiothreitol (DTT)). Cells were resuspended in membrane buffer and Dounce homogenized on ice 35 times. The membranes were collected by centrifugation at 15,000×g for 30 min. at 4° C. and resuspended in membrane buffer containing 0.2% bovine serum albumin (BSA) at a final concentration of approximately 5×10^7 cell equivalents per ml. Aliquots were flash frozen and stored at −80° C. Frozen aliquots were subsequently thawed, diluted, and sonicated on ice using a Branson Sonifier® 250 (4×5 sec, 40% output).
(§2) Prior to use in a binding assay, a membrane preparation is “calibrated” as described below to determine the amount of membrane preparation to be used. […]
(§3) The method of the present invention employs a binding assay such as the one described below. […] 50 μl of scintillation fluid was added to each well and plates were counted in a Wallac Microbeta® TriLux for 10 min. per well.

The next assay deals with tree shrew B1 receptor. Kind of assay: [3H]-des-Arg10-kallidin binding, 293E membranes, tree shrew B1. The arrangement: species or system tree shrew (Tupaia minor). The following applies: read-out: average dissociation constant (KD). On the procedure:
as §1, §2, §3

The test system of the next assay is CXCR2 receptor. The assay is described as follows: CXCR2 radioligand binding, 293E membranes, monkey/primate receptors. The following applies: recombinant CXCR2 from six primate species. The procedure: Membrane preparations for use in accordance with the methods of the present invention were generated as follows. 293E cell monolayers expressing CXCR2 receptors were washed twice with PBS and 5 ml of ice cold homogenizing buffer (for example, 10 mM HEPES pH 8.0, 10 mM EDTA). Cells were resuspended in membrane buffer and Dounce homogenized on ice 35 times. The membranes were collected by centrifugation at 15,000×g for 30 min. at 4° C. and resuspended in membrane storage buffer (10 mM Tris-HCl pH8.0, 1.2 mM MgSO4, 0.1 mM EDTA, 25 mM NaCl, 1 unit/ml bacitracin) at a final concentration of approximately 5×10^7 cell equivalents per ml. Aliquots were flash frozen and stored at −80° C. Frozen aliquots were subsequently thawed, diluted, and sonicated on ice using a Branson Sonifier® 250 (4×5 sec, 40% output).
Prior to use in a binding assay, a membrane preparation is “calibrated” as described below to determine the amount of membrane preparation to be used. A frozen sample of a membrane preparation is thawed and the preparation diluted in assay buffer to obtain several different concentrations of membranes, for example, 1:5, 1:10, 1:20, 1:40 and so on. The diluted membrane preparation is sonicated in a bath style sonicator for 5 minutes at room temperature. Each dilution is plated in a 96-well plate, for example, with quintuplicate samples for binding of ligand and wells to evaluate non-specific binding in triplicate. The dilutions that yield approximately 200 cpm total counts are chosen for subsequent assays.
For determining binding affinity for the orthologous CXCR2 receptors, described herein, the method of the present invention employs a binding assay such as the one described below. A suitable binding assay buffer for receptor binding consists of 10 mM Tris pH 8.0, 0.1 mM EDTA, 1.2 mM MgSO4, 25 mM NaCl and 0.03% CHAPS (Sigma, St. Louis, Mo.). […] 50 μl of scintillation fluid was added to each well and plates were counted in a Wallac Microbeta® TriLux for 1 min. per well.

The target in assay [2] is pig bradykinin B1 receptor (UniProt Q8HZN9). Kind of assay: radioligand competition binding.
pig bradykinin B1 receptor, sequence (Q8HZN9 whole entry): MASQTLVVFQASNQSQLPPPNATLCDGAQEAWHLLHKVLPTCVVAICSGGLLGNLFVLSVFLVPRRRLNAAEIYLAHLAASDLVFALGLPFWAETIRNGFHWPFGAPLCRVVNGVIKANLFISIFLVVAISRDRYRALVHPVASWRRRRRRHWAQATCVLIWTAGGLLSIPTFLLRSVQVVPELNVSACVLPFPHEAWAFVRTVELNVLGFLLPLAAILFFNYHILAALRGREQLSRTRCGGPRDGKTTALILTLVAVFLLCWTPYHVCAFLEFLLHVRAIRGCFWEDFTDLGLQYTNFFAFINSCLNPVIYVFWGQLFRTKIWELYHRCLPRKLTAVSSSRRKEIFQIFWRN
For assay [3], the target named is tree shrew bradykinin B1 receptor (UniProt Q8HZP1). The assay is described as follows: radioligand competition binding.
tree shrew bradykinin B1 receptor, sequence (Q8HZP1 whole entry): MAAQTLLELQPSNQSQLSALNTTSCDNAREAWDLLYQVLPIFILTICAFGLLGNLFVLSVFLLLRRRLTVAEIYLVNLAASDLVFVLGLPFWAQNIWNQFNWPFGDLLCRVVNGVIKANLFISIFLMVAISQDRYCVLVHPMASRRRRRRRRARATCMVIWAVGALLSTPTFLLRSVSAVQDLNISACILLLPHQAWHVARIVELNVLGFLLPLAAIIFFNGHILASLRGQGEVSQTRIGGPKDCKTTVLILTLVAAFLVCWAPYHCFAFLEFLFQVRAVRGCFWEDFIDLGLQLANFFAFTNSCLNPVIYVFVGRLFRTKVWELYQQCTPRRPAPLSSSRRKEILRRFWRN
Assay [4] deals with rhesus macaque bradykinin B1 receptor (UniProt Q8HZP2). Kind of assay: radioligand competition binding.
The target in assay [5] is rabbit bradykinin B1 receptor (rabbit) (UniProt P48748). The assay is described as follows: radioligand competition binding.
rabbit bradykinin B1 receptor (rabbit), sequence (P48748 whole entry): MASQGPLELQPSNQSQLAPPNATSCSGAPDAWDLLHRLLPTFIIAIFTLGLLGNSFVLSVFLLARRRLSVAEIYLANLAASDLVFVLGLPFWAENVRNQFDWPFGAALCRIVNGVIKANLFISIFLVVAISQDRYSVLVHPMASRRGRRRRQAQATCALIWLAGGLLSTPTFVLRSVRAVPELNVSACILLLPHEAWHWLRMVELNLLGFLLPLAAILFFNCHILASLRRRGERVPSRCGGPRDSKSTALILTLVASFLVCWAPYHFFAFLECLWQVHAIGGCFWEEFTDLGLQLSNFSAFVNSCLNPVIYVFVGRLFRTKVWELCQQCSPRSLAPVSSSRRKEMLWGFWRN
Assay [6] deals with canine/human chimeric bradykinin B1 receptor (UniProt Q9BDQ5). The assay is described as follows: radioligand competition binding.
In assay [7] the target is human bradykinin B1 receptor (human) (UniProt P46663). The assay is described as follows: radioligand competition binding.
The target in the next assay is T1, dog B1 (Canis lupus familiaris, UniProt Q9BDQ5, D322E/F324Y/R319K).
T1 construct: the chimeric canine/human receptor described above was used in the experiments described below; C-terminal cytoplasmic tail of human bradykinin B1 receptor (fusion partner of the chimera); expressed in transfected cells; host or cells: 293-EBNA (293E) cells, membranes
T1 sequence (Q9BDQ5 with tags, fused parts or gaps R319K/D322E/F324Y): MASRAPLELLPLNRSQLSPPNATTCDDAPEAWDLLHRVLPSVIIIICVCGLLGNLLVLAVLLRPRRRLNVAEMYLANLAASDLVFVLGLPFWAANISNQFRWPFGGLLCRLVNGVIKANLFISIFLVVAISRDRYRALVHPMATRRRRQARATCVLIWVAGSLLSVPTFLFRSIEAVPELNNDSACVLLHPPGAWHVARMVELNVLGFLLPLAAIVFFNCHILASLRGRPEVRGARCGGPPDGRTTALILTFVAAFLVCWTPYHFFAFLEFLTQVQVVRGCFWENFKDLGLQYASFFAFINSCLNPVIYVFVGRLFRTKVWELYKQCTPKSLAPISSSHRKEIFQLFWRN
Kind of assay: [3H]-des-Arg10-kallidin binding, 293E membranes, dog B1 (canine/human chimera). Conditions: 0.6 nM [3H]-dAKd.
Source text: Additionally, a canine/human chimeric bradykinin B1 receptor comprising amino acids 1 to 320 of the canine sequence and amino acids 319–353 of human bradykinin B1 receptor was generated. Any number of chimeric molecules, for example, a chimera comprising amino acids 1–315 of the canine sequence and amino acids 314–353 of the human sequence can be used.
as §1, with “Frozen aliquots were subsequently thawed, diluted, and sonicated on ice using a Branson Sonifier® 250 (4×5 sec, 40% output).” left out
as §3

For assay [8], the target named is pig bradykinin B1 receptor (UniProt Q8HZN9). Kind of assay: radioligand saturation binding; legend: [3H]-des-Arg10-kallidin.
In assay [9] the target is tree shrew bradykinin B1 receptor (UniProt Q8HZP1). Described as above.
The target in assay [10] is rhesus macaque bradykinin B1 receptor (UniProt Q8HZP2). Described as above.
In assay [11] the target is rabbit bradykinin B1 receptor (rabbit) (UniProt P48748). The assay is described as above.
Assay [12] deals with canine/human chimeric bradykinin B1 receptor (UniProt Q9BDQ5). The assay is described as above.
For assay [13], the target named is human bradykinin B1 receptor (human) (UniProt P46663). Described as above.

des-Arg^10-kallidin, sequence (P01042 whole entry, looked up): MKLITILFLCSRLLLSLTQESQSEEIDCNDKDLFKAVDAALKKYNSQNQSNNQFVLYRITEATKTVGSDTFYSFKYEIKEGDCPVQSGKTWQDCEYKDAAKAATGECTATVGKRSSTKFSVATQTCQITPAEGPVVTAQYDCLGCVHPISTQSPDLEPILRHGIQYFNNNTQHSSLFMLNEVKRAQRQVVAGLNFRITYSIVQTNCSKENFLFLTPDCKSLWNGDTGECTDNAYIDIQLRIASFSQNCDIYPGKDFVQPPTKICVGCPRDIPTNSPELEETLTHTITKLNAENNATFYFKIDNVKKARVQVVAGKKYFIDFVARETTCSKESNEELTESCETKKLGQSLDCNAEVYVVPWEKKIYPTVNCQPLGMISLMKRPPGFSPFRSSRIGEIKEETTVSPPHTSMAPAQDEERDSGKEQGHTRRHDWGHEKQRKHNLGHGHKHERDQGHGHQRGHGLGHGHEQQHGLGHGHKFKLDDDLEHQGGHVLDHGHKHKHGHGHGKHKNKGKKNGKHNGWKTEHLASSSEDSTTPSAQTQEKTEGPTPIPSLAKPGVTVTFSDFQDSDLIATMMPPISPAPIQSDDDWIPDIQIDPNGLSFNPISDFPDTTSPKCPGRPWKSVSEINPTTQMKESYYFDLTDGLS
[des-Arg^10] [Leu^9]kallidin, sequence (P01042 whole entry, looked up): as above

Take `N=C(N)NCCC[C@H](NC(=O)[C@@H](N)CCCCN)C(=O)N1CCC[C@H]1C(=O)N1CCC[C@H]1C(=O)NCC(=O)N[C@@H](Cc1ccccc1)C(=O)N[C@@H](CO)C(=O)N1CCC[C@H]1C(=O)N[C@@H](Cc1ccccc1)C(=O)O` [dAKd, des-Arg^10-Kallidin]: the “affinity (K1) at all B1 species homologues, in words” value in assay [1] is reported as “approximately equipotent”; in [1] (listed as dAKD), “strong affinity”. At tree shrew B1 receptor, the Kd came to 4.2 nM.

With “ENA-78: ligand bound by the encoded CXCR2 receptors”, the “binding to the encoded receptors, in words” value (from here on “binding”) in the assay on CXCR2 receptor is recorded as “capable of binding”.

Consider “Gro-alpha: ligand bound by the encoded CXCR2 receptors”, for which the “binding” value in the assay with CXCR2 receptor is “capable of binding”.

In the case of “[des-Arg^10] [Leu^9]kallidin (from UniProt P01042 380-388)”, the Ki in assay [2] was 9.5 nM; in [3] it was 22 nM; in assay [4], 9.5 nM; in assay [5], 9.3 nM; in assay [6], 120 nM; in assay [7], 4.6 nM.

For the molecule [des-Arg^10] [Leu^9]kallidin [dALKd], the “affinity (K1) at dog B1, in words” value at dog B1 is given as “more than an order of magnitude weaker”.

For the molecule “des-Arg^10-kallidin (from UniProt P01042 380-388)”, the Kd in [8] was 1.9 ?; in [9], 4.2 ?; in [10], 2.8 ?; in [11], 1.3 ?; in assay [12] it was 3.3 ?; in assay [13] it was 0.6 ?. The Ki in assay [2] is 2.3 nM; in assay [3] it was 6.1 nM; in assay [4], 3.3 nM; in assay [5], 3.4 nM; in assay [6], 4.2 nM; in [7] it was 1.5 nM.

For the molecule interleukin 8: native ligand of CXCR2, the “binding” value with CXCR2 receptor was “capable of binding”.
